We go through one substance from patent publication US20030129186A1.

This assay deals with p97 receptor (melanotransferrin receptor, MTf-R) on bovine brain capillary endothelial cells (BBCECs) (bovine). Kind of assay: cell-based or functional assay.

Take “recombinant receptor-associated protein (RAP)”: the decrease in initial rate of [125I]-p97 transport across BBCEC monolayers with recombinant RAP (25 µg/ml) was over 50%.
